Experimental data: patent US20240368309A1 (Hoffmann-La Roche, published 2024)

Target: T1, biotinylated monovalent EpCAM-Fc (human EpCAM ECD-Fc knob avi-his paired with Fc hole) (human, UniProt P01857 104-328 = IgG part, biotin on the avi tag (BirA co-expression))
T1 construct: also called monovalent EpCAM-Fc construct; huEPCAM-Fc-knob (avi-His) + Fc hole (wt)
Assay: SPR ProteOn XPR36 off-rate, biotinylated monovalent EpCAM-Fc on NLC chip, 50 nM supernatant

Binder | koff
Monovalent EpCAM (GG04_VH x GG01_VL) (antibody, IgG1, V domains shown, one-armed hu IgG1 PG-LALA, VH/VL-crossed Fab on Fc hole plus empty Fc knob; from supernatant) VH: EVQLVQSGAEVKKPGESLKISCKGSGYSFTNYGMNWVRQMPGKGLEWMGWINTYTGESTYSPSFQGQVTISADKSISTAYLQWSSLKASDTAMYFCARFAIKGDYWGQGTLVTVSS VL: DIVMTQSPLSLPVTPGEPASISCRSSQSLLHSNGITYLYWYLQKPGQSPQLLIYQMSNRASGVPDRFSGSGSGTDFTLKISRVEAEDVGVYYCAQNLEIPRTFGQGTKLEIK | 0.00662 s⁻¹
Monovalent EpCAM (GG04_VH x GG06_VL) (antibody, IgG1, V domains shown, one-armed hu IgG1 PG-LALA, VH/VL-crossed Fab on Fc hole plus empty Fc knob; from supernatant) VH: EVQLVQSGAEVKKPGESLKISCKGSGYSFTNYGMNWVRQMPGKGLEWMGWINTYTGESTYSPSFQGQVTISADKSISTAYLQWSSLKASDTAMYFCARFAIKGDYWGQGTLVTVSS VL: DIQMTQSPSSLSASVGDRVTITCRASQSILHSQGITYLYWYQQKPGKAPKLLIYQMSNLQSGVPSRFSGSGSGTDFTLTISSLQPEDFATYYCAQNLEIPRTFGQGTKLEIK | 0.00581 s⁻¹
Monovalent EpCAM (GG04_VH x GG02_VL) (antibody, IgG1, V domains shown, one-armed hu IgG1 PG-LALA, VH/VL-crossed Fab on Fc hole plus empty Fc knob; from supernatant) VH: EVQLVQSGAEVKKPGESLKISCKGSGYSFTNYGMNWVRQMPGKGLEWMGWINTYTGESTYSPSFQGQVTISADKSISTAYLQWSSLKASDTAMYFCARFAIKGDYWGQGTLVTVSS VL: DIVMTQSPDSLAVSLGERATINCKSSQSLLHSNGITYLYWYQQKPGQPPKLLIYQASTRESGVPDRFSGSGSGTDFTLTISSLQAEDVAVYYCAQNLEIPRTFGQGTKLEIK | 0.00943 s⁻¹
Monovalent EpCAM (GG04_VH x GG04_VL) (antibody, IgG1, V domains shown, one-armed hu IgG1 PG-LALA, VH/VL-crossed Fab on Fc hole plus empty Fc knob; from supernatant) VH: EVQLVQSGAEVKKPGESLKISCKGSGYSFTNYGMNWVRQMPGKGLEWMGWINTYTGESTYSPSFQGQVTISADKSISTAYLQWSSLKASDTAMYFCARFAIKGDYWGQGTLVTVSS VL: DIQMTQSPSSLSASVGDRVTITCRASQSISSYLYWYQQKPGKAPKLLIYQASSLQSGVPSRFSGSGSGTDFTLTISSLQPEDFATYYCAQNLEIPRTFGQGTKLEIK | 0.0069 s⁻¹
Monovalent EpCAM (GG04_VH x GG03_VL) (antibody, IgG1, V domains shown, one-armed hu IgG1 PG-LALA, VH/VL-crossed Fab on Fc hole plus empty Fc knob; from supernatant) VH: EVQLVQSGAEVKKPGESLKISCKGSGYSFTNYGMNWVRQMPGKGLEWMGWINTYTGESTYSPSFQGQVTISADKSISTAYLQWSSLKASDTAMYFCARFAIKGDYWGQGTLVTVSS VL: EIVLTQSPGTLSLSPGERATLSCRASQSLLHSNGITYLYWYQQKPGQAPRLLIYQMSNRATGIPDRFSGSGSGTDFTLTISRLEPEDFAVYYCAQNLEIPRTFGQGTKLEIK | 0.00538 s⁻¹

Now from value to binder:

koff | Binder
0.00302 s⁻¹ | Monovalent EpCAM (GG05_VH x GG07_VL) (antibody, IgG1, V domains shown, one-armed hu IgG1 PG-LALA, VH/VL-crossed Fab on Fc hole plus empty Fc knob; from supernatant) VH: EVQLVQSGAEVKKPGESLKISCKGSGYSFTQYGMNWVRQMPGKGLEWMGWINTYTGESTYSPSFQGQVTISADKSISTAYLQWSSLKASDTAMYFCARFAIKGDYWGQGTLVTVSS VL: EIVLTQSPGTLSLSPGERATLSCRASQSINNYLYWYQQKPGQAPRLLIYQMSNRATGIPDRFSGSGSGTDFTLTISRLEPEDFAVYYCAQNLEIPRTFGQGTKLEIK
0.00317 s⁻¹ | Monovalent EpCAM (GG05_VH x GG06_VL) (antibody, IgG1, V domains shown, one-armed hu IgG1 PG-LALA, VH/VL-crossed Fab on Fc hole plus empty Fc knob; from supernatant) VH: EVQLVQSGAEVKKPGESLKISCKGSGYSFTQYGMNWVRQMPGKGLEWMGWINTYTGESTYSPSFQGQVTISADKSISTAYLQWSSLKASDTAMYFCARFAIKGDYWGQGTLVTVSS VL: DIQMTQSPSSLSASVGDRVTITCRASQSILHSQGITYLYWYQQKPGKAPKLLIYQMSNLQSGVPSRFSGSGSGTDFTLTISSLQPEDFATYYCAQNLEIPRTFGQGTKLEIK
0.00545 s⁻¹ | Monovalent EpCAM (GG05_VH x GG01_VL) (antibody, IgG1, V domains shown, one-armed hu IgG1 PG-LALA, VH/VL-crossed Fab on Fc hole plus empty Fc knob; from supernatant) VH: EVQLVQSGAEVKKPGESLKISCKGSGYSFTQYGMNWVRQMPGKGLEWMGWINTYTGESTYSPSFQGQVTISADKSISTAYLQWSSLKASDTAMYFCARFAIKGDYWGQGTLVTVSS VL: DIVMTQSPLSLPVTPGEPASISCRSSQSLLHSNGITYLYWYLQKPGQSPQLLIYQMSNRASGVPDRFSGSGSGTDFTLKISRVEAEDVGVYYCAQNLEIPRTFGQGTKLEIK
4.35e-05 s⁻¹ | Monovalent EpCAM (GG05_VH x GG03_VL) (antibody, IgG1, V domains shown, one-armed hu IgG1 PG-LALA, VH/VL-crossed Fab on Fc hole plus empty Fc knob; from supernatant) VH: EVQLVQSGAEVKKPGESLKISCKGSGYSFTQYGMNWVRQMPGKGLEWMGWINTYTGESTYSPSFQGQVTISADKSISTAYLQWSSLKASDTAMYFCARFAIKGDYWGQGTLVTVSS VL: EIVLTQSPGTLSLSPGERATLSCRASQSLLHSNGITYLYWYQQKPGQAPRLLIYQMSNRATGIPDRFSGSGSGTDFTLTISRLEPEDFAVYYCAQNLEIPRTFGQGTKLEIK
0.00783 s⁻¹ | Monovalent EpCAM (GG05_VH x GG02_VL) (antibody, IgG1, V domains shown, one-armed hu IgG1 PG-LALA, VH/VL-crossed Fab on Fc hole plus empty Fc knob; from supernatant) VH: EVQLVQSGAEVKKPGESLKISCKGSGYSFTQYGMNWVRQMPGKGLEWMGWINTYTGESTYSPSFQGQVTISADKSISTAYLQWSSLKASDTAMYFCARFAIKGDYWGQGTLVTVSS VL: DIVMTQSPDSLAVSLGERATINCKSSQSLLHSNGITYLYWYQQKPGQPPKLLIYQASTRESGVPDRFSGSGSGTDFTLTISSLQAEDVAVYYCAQNLEIPRTFGQGTKLEIK
